These results are taken from the supplement of paper PMC7877785.

± gives the uncertainty stated by the source.

This data set is described as follows: self-splicing fitness, log relative to wild type (ln ratio); higher = more splicing; Tetrahymena group I intron in knt gene, E. coli kanamycin selection, DiMSum; sequences stand for … in CUCUCU…GGAGGGAAAAGUUAUCAGGCAUGCACCUGGUAGCUAGUCUUUAAACCAAUAGAUUGCAUCGGUUUAAAAGGCAAGACCGUCAAAUUGCGGGAAAGGGGUCAACAGCCGUUCAGUACCAAGUCUCAGGGGAAACUUUGAGAUGGCCUUGCAAAGGGUAUGGUAAUAAGCUGACGGACAUGGUCCUAACCACGCAGCCAAGUCCUAAGUCAACAGAUCUUCUGUUGAUAUGGAUGCAGUUCACAGACUAAAUGUCGGUCGGGGAAGAUGUAUUCUUCUCAUAAGAUAUAGUCGGACCUCUCCUUAAUGGGAGCUAGCGGAUGAAGUGAUGCAACACUGGAGCCGCUGGGAACUAAUUUGUAUGCGAAAGUAUAUUGAUUAGUUUUGGAGUACUCGUGGUCG
A digest of the protocol:
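Library with all eight P1ex-region intron nucleotides randomised, intron inside the knt kanamycin-resistance gene on pET-22b(+), in E. coli BL21(DE3). Cells grew overnight at 37°C or 30°C on LB agar with or without 25 μg/mL kanamycin (plus 100 μg/mL carbenicillin, 50 μM IPTG, 0.2% rhamnose), in six replicate transformations. Pooled colonies were amplicon-sequenced on Illumina HiSeq 2500. DiMSum fitness is the error-weighted combination of wild-type-normalised replicate fold changes, kanamycin versus none.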

In the case of UGGCAGCAAUAUUACGGUGA, the “self-splicing fitness (ln)” value is, setting by setting: (30 °C) -0.428 ± 0.097; (37 °C) 0.214 ± 0.12.

Regarding GUCGAGCAAUAUUACGAAGC, the “self-splicing fitness (ln)” value (30 °C) was -2.37 ± 0.19 and the “self-splicing fitness (ln)” value (37 °C) is -1.85 ± 0.23.

As to GGUCAGCAAUAUUACGUGAG, the “self-splicing fitness (ln)” value runs as follows: (30 °C) 0.0154 ± 0.061; (37 °C) 0.241 ± 0.085.

As to CGACAGCAAUAUUACGUUUA, the “self-splicing fitness (ln)” value by setting is: (30 °C) -1.81 ± 0.11; (37 °C) -0.394 ± 0.087.

With CCUUAGCAAUAUUACGUAUC, the “self-splicing fitness (ln)” value is -4.15 ± 0.27 (30 °C) and -2.17 ± 0.26 (37 °C).

With AUGAAGCAAUAUUACGCACC, the “self-splicing fitness (ln)” value runs as follows: (30 °C) -0.272 ± 0.097; (37 °C) 0.751 ± 0.18.

Take UGGUAGCAAUAUUACGACCU: the “self-splicing fitness (ln)” value is -0.697 ± 0.13 (30 °C) and 0.261 ± 0.14 (37 °C).

As for GGCCAGCAAUAUUACGGCCG, the “self-splicing fitness (ln)” value (30 °C) was -3.47 ± 0.22 and the “self-splicing fitness (ln)” value (37 °C) was -3 ± 0.23.

On to ACGGAGCAAUAUUACGCAUA, for which the “self-splicing fitness (ln)” value was -3.27 ± 0.21 (30 °C) and -2.86 ± 0.22 (37 °C).

As for UACCAGCAAUAUUACGGUGG, the “self-splicing fitness (ln)” value is, setting by setting: (30 °C) -3.17 ± 0.11; (37 °C) -1.87 ± 0.087.

Consider GAGGAGCAAUAUUACGCAGA, for which the “self-splicing fitness (ln)” value is, setting by setting: (30 °C) -3.91 ± 0.34; (37 °C) -2.86 ± 0.32.

For UUCGAGCAAUAUUACGUAGA, the “self-splicing fitness (ln)” value (30 °C) is -3.11 ± 0.16 and the “self-splicing fitness (ln)” value (37 °C) is -1.97 ± 0.17.

For the sequence UCGUAGCAAUAUUACGUUGU, the “self-splicing fitness (ln)” value is, setting by setting: (30 °C) -4.46 ± 0.46; (37 °C) -2.43 ± 0.23.

Consider GACUAGCAAUAUUACGUGUA, for which the “self-splicing fitness (ln)” value (30 °C) was -1.06 ± 0.067 and the “self-splicing fitness (ln)” value (37 °C) is -0.258 ± 0.069.

As to GGCAAGCAAUAUUACGCUGG, the “self-splicing fitness (ln)” value runs as follows: (30 °C) -3.31 ± 0.23; (37 °C) -2.68 ± 0.28.

On to UUCUAGCAAUAUUACGAUGA, for which the “self-splicing fitness (ln)” value reads like this: (30 °C) -0.819 ± 0.19; (37 °C) -0.0657 ± 0.2.

For the sequence UGUUAGCAAUAUUACGGAUC, the “self-splicing fitness (ln)” value was -2.29 ± 0.35 (30 °C) and -1.81 ± 0.27 (37 °C).

As for GGGAAGCAAUAUUACGUUUU, the “self-splicing fitness (ln)” value reads like this: (30 °C) -2.68 ± 0.23; (37 °C) -1.62 ± 0.25.

As to CAGCAGCAAUAUUACGUGCA, the “self-splicing fitness (ln)” value reads like this: (30 °C) -1.03 ± 0.061; (37 °C) -0.673 ± 0.066.

Take GUCCAGCAAUAUUACGCGGU: the “self-splicing fitness (ln)” value is -3.19 ± 0.24 (30 °C) and -2.14 ± 0.17 (37 °C).

As to UUAAAGCAAUAUUACGAACU, the “self-splicing fitness (ln)” value runs as follows: (30 °C) -0.567 ± 0.11; (37 °C) -0.0402 ± 0.12.

On to AAGAAGCAAUAUUACGCUUA, for which the “self-splicing fitness (ln)” value (30 °C) was -1.05 ± 0.12 and the “self-splicing fitness (ln)” value (37 °C) was -0.977 ± 0.13.

With CCGAAGCAAUAUUACGUGUG, the “self-splicing fitness (ln)” value (30 °C) was -2.19 ± 0.059 and the “self-splicing fitness (ln)” value (37 °C) was -0.959 ± 0.062.

Take CACAAGCAAUAUUACGCUUG: the “self-splicing fitness (ln)” value is, setting by setting: (30 °C) -3.66 ± 0.18; (37 °C) -1.77 ± 0.15.

Regarding CCGUAGCAAUAUUACGGUAA, the “self-splicing fitness (ln)” value runs as follows: (30 °C) -3.17 ± 0.24; (37 °C) -3.3 ± 0.26.

Turning to AUUAAGCAAUAUUACGGUGG, the “self-splicing fitness (ln)” value reads like this: (30 °C) -3.17 ± 0.28; (37 °C) -1.94 ± 0.22.

Consider GCAAAGCAAUAUUACGGCAG, for which the “self-splicing fitness (ln)” value is -3.61 ± 0.22 (30 °C) and -2.81 ± 0.31 (37 °C).

Consider GCGAAGCAAUAUUACGUCAU, for which the “self-splicing fitness (ln)” value (30 °C) was -2.72 ± 0.15 and the “self-splicing fitness (ln)” value (37 °C) is -1.65 ± 0.14.

For GGUGAGCAAUAUUACGGGGA, under “37 °C”, the “self-splicing fitness (ln)” value is -2.42 ± 0.28.

Turning to CAACAGCAAUAUUACGCGGG, the “self-splicing fitness (ln)” value (30 °C) was -2.63 ± 0.14 and the “self-splicing fitness (ln)” value (37 °C) is -2.12 ± 0.14.

As for CGUUAGCAAUAUUACGAGGA, the “self-splicing fitness (ln)” value by setting is: (30 °C) -2.48 ± 0.27; (37 °C) -2.13 ± 0.27.

With UCCUAGCAAUAUUACGUGGA, the “self-splicing fitness (ln)” value runs as follows: (30 °C) -2.37 ± 0.16; (37 °C) -2.74 ± 0.23.

With CUGAAGCAAUAUUACGGUAA, the “self-splicing fitness (ln)” value (30 °C) is -3.7 ± 0.24 and the “self-splicing fitness (ln)” value (37 °C) was -1.27 ± 0.24.

For the sequence CUGAAGCAAUAUUACGCACG, the “self-splicing fitness (ln)” value runs as follows: (30 °C) -0.222 ± 0.072; (37 °C) -1.34 ± 0.08.

Turning to GGGUAGCAAUAUUACGUUCA, the “self-splicing fitness (ln)” value was 0.0201 ± 0.096 (30 °C) and -0.0805 ± 0.12 (37 °C).

CUGGAGCAAUAUUACGGUUC: the “self-splicing fitness (ln)” value (30 °C) is -2.68 ± 0.49.

Take CUCUAGCAAUAUUACGAAUU: the “self-splicing fitness (ln)” value is, setting by setting: (30 °C) -3.81 ± 0.29; (37 °C) -3.19 ± 0.4.

Regarding UUCGAGCAAUAUUACGUGAA, the “self-splicing fitness (ln)” value is -1.55 ± 0.27 (30 °C) and 1.01 ± 0.28 (37 °C).
